The labels stand for the following.
B1: QSK1-nYFP [Arabidopsis] / SIRK1-cYFP [Arabidopsis] (parent)
chain 1: SDLESDRRALLAVRNSVRGRPLLWNMSASSPCNWHGVHCDAGRVTALRLPGSGLFGSLPIGGIGNLTQLKTLSLRFNSLSGPIPSDFSNLVLLRYLYLQGNAFSGEIPSLLFTLPSIIRINLGENKFSGRIPDNVNSATRLVTLYLERNQLSGPIPEITLPLQQFNVSSNQLNGSIPSSLSSWPRTAFEGNTLCGKPLDTCEAESPNGGDAGGPNTPPEKKDSDKLSAGAIVGIVIGCVVGLLLLLLILFCLCRKRKKEENVPSRNVEAPVAAATSSAAIPKETVVVVPPAKATGSESGAVNKDLTFFVKSFGEFDLDGLLKASAEVLGKGTVGSSYKASFEHGLVVAVKRLRDVVVPEKEFRERLHVLGSMSHANLVTLIAYYFSRDEKLLVFEYMSKGSLSAILHGNKGNGRTPLNWETRAGIALGAARAISYLHSRDGTTSHGNIKSSNILLSDSYEAKVSDYGLAPIISSTSAPNRIDGYRAPEITDARKISQKADVYSFGVLILELLTGKSPTHQQLNEEGVDLPRWVQSVTEQQTPSDVLDPELTRYQPEGNENIIRLLKIGMSCTAQFPDSRPSMAEVTRLIEEVSHSSGSPNPVSD
chain 2: VTETELRSLLEFRKGIRDETSHQRISWSDTSSLTDPSTCPNDWPGISCDPETGSIIAINLDRRGLSGELKFSTLSGLTRLRNLSLSGNSFSGRVVPSLGGISSLQHLDLSDNGFYGPIPGRISELWSLNHLNLSSNKFEGGFPSGFRNLQQLRSLDLHKNEIWGDVGEIFTELKNVEFVDLSCNRFNGGLSLPMENISSISNTLRHLNLSHNALNGKFFSEESIGSFKNLEIVDLENNQINGELPHFGSQPSLRILKLARNELFGLVPQELLQSSIPLLELDLSRNGFTGSISEINSSTLTMLNLSSNGLSGDLPSSFKSCSVIDLSGNTFSGDVSVVQKWEATPDVLDLSSNNLSGSLPNFTSAFSRLSVLSIRNNSVSGSLPSLWGDSQFSVIDLSSNKFSGFIPVSFFTFASLRSLNLSRNNLEGPIPFRGSRASELLVLNSYPQMELLDLSTNSLTGMLPGDIGTMEKIKVLNLANNKLSGELPSDLNKLSGLLFLDLSNNTFKGQIPNKLPSQMVGFNVSYNDLSGIIPEDLRSYPPSSFYPGNSKLSLPGRIPADSSGDLSLPGKKHHSKLSIRIAIIVASVGAAIMILFVLFAYHRTQLKDFHGRNRFTDQATTRDTKFGRSSRPSLFNFSSNVEQQSSSLSFSNDHLLTANSRSLSGIPGCEAEISEQGAPATSAPTNLLDDYPAASGRKSSSGGSPLSSSPRFSDQPVMLDVYSPDRLAGELFFLDVSLKLTAEELSRAPAEVLGRSSHGTLYKATLDNGHMLTVKWLRVGLVRHKKDFAREAKKIGSLKHPNIVPLRAYYWGPREQERLLLSDYLRGESLAMHLYETTPRRYSPMSFSQRLKVAVEVAQCLLYLHDRAMPHGNLKPTNIILSSPDNTVRITDYCVHRLMTPSGVAEQILNMSALGYSAPELSSASKPIPTLKSDVYAFGVILMELLTRRSAGDIISGQTGAVDLTDWVRLCDQEGRRMDCIDRDIAGGEEFSKGMEDALAVAIRCILSVNERPNIRQVLDHLTSISA
B2: SIRK1-cYFP [Arabidopsis] / QSK2-nYFP [Arabidopsis] (parent)
chain 1: B1 chain 2
chain 2: DLEADRRALIALRDGVHGRPLLWNLTAPPCTWGGVQCESGRVTALRLPGVGLSGPLPIAIGNLTKLETLSFRFNALNGPLPPDFANLTLLRYLYLQGNAFSGEIPSFLFTLPNIIRINLAQNNFLGRIPDNVNSATRLATLYLQDNQLTGPIPEIKIKLQQFNVSSNQLNGSIPDPLSGMPKTAFLGNLLCGKPLDACPVNGTGNGTVTPGGKGKSDKLSAGAIVGIVIGCFVLLLVLFLIVFCLCRKKKKEQVVQSRSIEAAPVPTSSAAVAKESNGPPAVVANGASENGVSKNPAAVSKDLTFFVKSFGEFDLDGLLKASAEVLGKGTFGSSYKASFDHGLVVAVKRLRDVVVPEKEFREKLQVLGSISHANLVTLIAYYFSRDEKLVVFEYMSRGSLSALLHGNKGSGRSPLNWETRANIALGAARAISYLHSRDATTSHGNIKSSNILLSESFEAKVSDYCLAPMISPTSTPNRIDGYRAPEVTDARKISQKADVYSFGVLILELLTGKSPTHQQLHEEGVDLPRWVSSITEQQSPSDVFDPELTRYQSDSNENMIRLLNIGISCTTQYPDSRPTMPEVTRLIEEVSRSPASPGPLSD
B3: SIRK1-cYFP [Arabidopsis] / QSK1-nYFP [Arabidopsis] (parent)
chain 1: B1 chain 2
chain 2: B1 chain 1

Variants of B1 are the subject of the first assay. Put plainly: ratiometric bimolecular fluorescence complementation (rBiFC). The settings on record: with SIRK1-cYFP [Arabidopsis]; n=12 cells (parent n=10); value is box-plot median; parent: 0.9; read off a plot.
chain 1 S598D S603D: the response came to 1.8.

The assay is the same for the next values; noted with them: with SIRK1-cYFP [Arabidopsis]; n=14 cells (parent n=10); value is box-plot median; parent: 0.9; read off a plot.
chain 1 S598A S603A: the response is 1.

In a further assay the parent is B2. Described as above. The settings on record: with QSK2-nYFP [Arabidopsis]; n=34 cells (parent n=32); value is box-plot median; parent: 1.6; read off a plot.
Turning to chain 1 S723A, the response came out at 0.15.

The assay is the same for the next values; noted with them: with QSK2-nYFP [Arabidopsis]; n=35 cells (parent n=32); value is box-plot median; parent: 1.6; read off a plot.
In the case of chain 1 S723D, the response was found to be 1.7.

The variants in a further assay derive from B3. Described as above. The settings on record: with QSK1-nYFP [Arabidopsis]; n=10 cells (parent n=10); value is box-plot median; parent: 0.9; read off a plot.
With chain 1 S723A, the response is 0.18.

Consider chain 1 S723D, for which the response was found to be 1.3.

Values taken from publication PMC6683012.
